T1: human IL-2 receptor (human, UniProt P01589 22-272; P14784 27-551; P31785 23-369)
T1 sequence (looked up) 1: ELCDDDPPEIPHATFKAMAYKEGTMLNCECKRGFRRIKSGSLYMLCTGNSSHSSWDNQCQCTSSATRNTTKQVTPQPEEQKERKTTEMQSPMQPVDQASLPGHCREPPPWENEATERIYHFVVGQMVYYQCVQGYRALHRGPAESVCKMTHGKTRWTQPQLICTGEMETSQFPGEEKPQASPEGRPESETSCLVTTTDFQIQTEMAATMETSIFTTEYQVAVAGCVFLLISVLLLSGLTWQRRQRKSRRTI
T1 sequence (looked up) 2: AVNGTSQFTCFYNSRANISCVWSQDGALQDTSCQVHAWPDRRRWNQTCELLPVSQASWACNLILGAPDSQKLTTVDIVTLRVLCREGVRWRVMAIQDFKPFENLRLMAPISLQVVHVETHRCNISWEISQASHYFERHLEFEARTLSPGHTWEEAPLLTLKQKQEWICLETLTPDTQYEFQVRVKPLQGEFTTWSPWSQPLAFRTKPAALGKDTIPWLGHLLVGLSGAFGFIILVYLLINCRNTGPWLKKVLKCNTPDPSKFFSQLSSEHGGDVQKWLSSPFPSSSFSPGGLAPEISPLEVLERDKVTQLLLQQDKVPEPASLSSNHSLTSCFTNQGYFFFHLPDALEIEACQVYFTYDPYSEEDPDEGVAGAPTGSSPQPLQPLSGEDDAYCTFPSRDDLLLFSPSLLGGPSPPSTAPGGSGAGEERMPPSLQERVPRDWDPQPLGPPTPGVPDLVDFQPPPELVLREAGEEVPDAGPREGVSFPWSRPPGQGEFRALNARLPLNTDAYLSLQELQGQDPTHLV
T1 sequence (looked up) 3: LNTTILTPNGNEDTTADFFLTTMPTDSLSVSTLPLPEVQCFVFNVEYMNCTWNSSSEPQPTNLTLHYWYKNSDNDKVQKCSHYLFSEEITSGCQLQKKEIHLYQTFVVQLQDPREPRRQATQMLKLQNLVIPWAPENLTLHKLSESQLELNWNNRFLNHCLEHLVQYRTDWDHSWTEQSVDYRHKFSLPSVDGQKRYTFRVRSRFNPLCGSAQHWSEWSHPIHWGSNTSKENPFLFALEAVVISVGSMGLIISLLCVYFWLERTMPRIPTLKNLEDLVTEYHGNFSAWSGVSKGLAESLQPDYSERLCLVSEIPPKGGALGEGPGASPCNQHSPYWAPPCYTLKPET


Key:
[1] = target: T2, human IL-12 receptor complex (human, UniProt P42701 24-662; Q99665 24-862); assay: cell-based or functional assay
T2 sequence (Q99665 24-862, chain 2 of 2, other chains not shown): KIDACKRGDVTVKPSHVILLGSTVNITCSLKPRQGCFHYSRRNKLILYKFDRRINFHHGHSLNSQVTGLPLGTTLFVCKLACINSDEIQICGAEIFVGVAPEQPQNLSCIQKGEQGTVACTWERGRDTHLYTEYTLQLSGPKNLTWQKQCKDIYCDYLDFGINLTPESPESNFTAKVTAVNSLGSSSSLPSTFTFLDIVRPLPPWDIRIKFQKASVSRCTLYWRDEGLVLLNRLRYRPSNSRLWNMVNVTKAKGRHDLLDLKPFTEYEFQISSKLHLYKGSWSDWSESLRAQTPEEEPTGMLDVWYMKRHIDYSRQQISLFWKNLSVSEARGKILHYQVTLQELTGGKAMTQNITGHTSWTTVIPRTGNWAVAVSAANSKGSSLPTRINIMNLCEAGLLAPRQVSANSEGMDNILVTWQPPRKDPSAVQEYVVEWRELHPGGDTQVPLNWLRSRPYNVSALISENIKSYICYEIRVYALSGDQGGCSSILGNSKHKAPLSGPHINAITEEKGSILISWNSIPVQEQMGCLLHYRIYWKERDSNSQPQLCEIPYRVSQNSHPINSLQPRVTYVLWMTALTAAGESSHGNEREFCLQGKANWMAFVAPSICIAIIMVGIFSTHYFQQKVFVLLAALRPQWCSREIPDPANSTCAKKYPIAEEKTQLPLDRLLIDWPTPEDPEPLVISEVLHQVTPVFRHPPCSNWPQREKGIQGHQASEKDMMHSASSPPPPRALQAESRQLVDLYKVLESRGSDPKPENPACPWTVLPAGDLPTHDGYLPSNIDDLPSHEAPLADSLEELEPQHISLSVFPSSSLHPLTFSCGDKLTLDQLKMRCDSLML

CD8 on CD8+ T cells = target: T3, CD8 on CD8+ T cells (human, UniProt P01732 22-235); assay: FACS on CD8+ T cells
T3 construct: whole, on cells
T3 sequence (P01732 22-235): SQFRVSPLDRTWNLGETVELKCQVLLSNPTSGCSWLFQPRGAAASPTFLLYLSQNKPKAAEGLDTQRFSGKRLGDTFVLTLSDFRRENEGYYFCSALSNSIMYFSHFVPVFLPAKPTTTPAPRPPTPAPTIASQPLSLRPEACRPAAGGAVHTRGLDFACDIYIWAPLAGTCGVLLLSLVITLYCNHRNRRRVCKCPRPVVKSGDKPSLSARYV

[2] = target: human PD-1 overexpressed on HEK-Blue reporter cells (human, UniProt Q15116 25-288); assay: cell-based or functional assay
human PD-1 overexpressed on HEK-Blue reporter cells, sequence (Q15116 25-288): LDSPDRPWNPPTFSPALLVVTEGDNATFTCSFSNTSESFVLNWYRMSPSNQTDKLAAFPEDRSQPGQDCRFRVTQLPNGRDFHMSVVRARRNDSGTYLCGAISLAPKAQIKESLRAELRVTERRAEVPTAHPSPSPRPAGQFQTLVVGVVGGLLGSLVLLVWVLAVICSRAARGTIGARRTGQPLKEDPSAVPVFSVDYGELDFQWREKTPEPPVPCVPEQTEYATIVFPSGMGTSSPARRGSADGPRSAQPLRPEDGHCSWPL

[3] = target: T2, human IL-12 receptor complex; assay: cell-based or functional assay; remark: listed apart in the source
human IL-2 receptor = target: T1, human IL-2 receptor; assay: cell-based or functional assay

IFN-γ release, % of rIL-12, activated CD8+ T cells [1] [%]	binding result (CD8 on CD8+ T cells)	IL-2 signal transduction, % of rIL-2, HEK-IL-2-PD-1 cells [2] [%]	IL-12 signal transduction, % of rIL-12, HEK-IL-12-PD-1 cells [2] [%]	IL-12 signal transduction, % of rIL-12, HEK-IL-12 cells [3] [%]	IL-2 signal transduction, % of rIL-2, HEK-IL-2 cells (human IL-2 receptor) [%]	Binder
25	no binding	–	–	–	–	Fab-IL-12(WT)-Fc-CD4 Ab (other) heavy 1: QVQLQQSGPEVVKPGASVKMSCKASGYTFTSYVIHWVRQKPGQGLDWIGYINPYNDGTDYDEKFKGKATLTSDTSTSTAYMELSSLRSEDTAVYYCAREKDNYATGAWFAYWGQGTLVTVSSASTKGPSVFPLAPSSKSTSGGTAALGCLVKDYFPEPVTVSWNSGALTSGVHTFPAVLQSSGLYSLSSVVTVPSSSLGTQTYICNVNHKPSNTKVDKKVEPKSCDKPGSGIWELKKDVYVVELDWYPDAPGEMVVLTCDTPEEDGITWTLDQSSEVLGSGKTLTIQVKEFGDAGQYTCHKGGEVLSHSLLLLHKKEDGIWSTDILKDQKEPKNKTFLRCEAKNYSGRFTCWWLTTISTDLTFSVKSSRGSSDPQGVTCGAATLSAERVRGDNKEYEYSVECQEDSACPAAEESLPIEVMVDAVHKLKYENYTSSFFIRDIIKPDPPKNLQLKPLKNSRQVEVSWEYPDTWSTPHSYFSLTFCVQVQGKSKREKKDRVFTDKTSATVICRKNASISVRAQDRYYSSSWSEWASVPCSGGGGSGGGGSGGGGSGGGGSGRNLPVATPDPGMFPCLHHSQNLLRAVSNMLQKARQTLEFYPCTSEEIDHEDITKDKTSTVEACLPLELTKNESCLNSRETSFITNGSCLASRKTSFMMALCLSSIYEDLKMYQVEFKTMNAKLLMDPKRQIFLDQNMLAVIDELMQALNFNSETVPQKSSLEEPDFYKTKIKLCILLHAFRIRAVTIDRVMSYLNASDKTHTCPPCPAPEDEGGPSVFLFPPKPKDTLMISRTPEVTCVVVDVSHEDPEVKFNWYVDGVEVHNAKTKPREEQYNSTYRVVSVLTVLHQDWLNGKEYKCKVSNKALPAPIEKTISKAKGQPREPQVYVYPPSREEMTKNQVSLTCLVKGFYPSDIAVEWESNGQPENNYKTTPPVLDEDGSFALVSKLTVDKSRWQQGNVFSCSVMHEALHNHYTQKSLSLSPGK heavy 2: QVQLQQSGPEVVKPGASVKMSCKASGYTFTSYVIHWVRQKPGQGLDWIGYINPYNDGTDYDEKFKGKATLTSDTSTSTAYMELSSLRSEDTAVYYCAREKDNYATGAWFAYWGQGTLVTVSSASTKGPSVFPLAPSSKSTSGGTAALGCLVKDYFPEPVTVSWNSGALTSGVHTFPAVLQSSGLYSLSSVVTVPSSSLGTQTYICNVNHKPSNTKVDKKVEPKSCDKTHTCPPCPAPEKKGGPSVFLFPPKPKDTLMISRTPEVTCVVVDVSHEDPEVKFNWYVDGVEVHNAKTKPREEQYNSTYRVVSVLTVLHQDWLNGKEYKCKVSNKALPAPIEKTISKAKGQPREPQVYVLPPSREEMTKNQVSLLCLVKGFYPSDIAVEWESNGQPENRYMTWPPVLDSDGSFFLYSKLTVDKSRWQQGNVFSCSVMHEALHNHYTQKSLSLSPGK light: not shown
–	–	32	27	2	3	IL-2(L18R/Q22E/R38D/K43E/E61R)/PD-L1(mut2)-Fc/IL-12(E59A/F60A) (Fc fusion) chain 1: FTVTVPKDLYVVEYGSNMTIECKFPVEKQLDLAALQVYWMMEDKNIIQFVHGEEDLKVQHSSYRQRARLLKDQLSLGNAALQITDVKLQDAGVYTCLIAYKGADYKRITVKVNAPYNKINQRILVVDPVTSEHELTCQAEGYPKAEVIWTSSDHQVLSGKTTTTNSKREEKLFNVTSTLRINTTTNEIFYCTFRRLDPEENHTAELVIPELPLAHPPNERGGGGSGGGDKTHTCPPCPAPEDEGGPSVFLFPPKPKDTLMISRTPEVTCVVVDVSHEDPEVKFNWYVDGVEVHNAKTKPREEQYNSTYRVVSVLTVLHQDWLNGKEYKCKVSNKALPAPIEKTISKAKGQPREPQVYVYPPSREEMTKNQVSLTCLVKGFYPSDIAVEWESNGQPENNYKTTPPVLDEDGSFALVSKLTVDKSRWQQGNVFSCSVMHEALHNHYTQKSLSLSPGKGGGGSGGGIWELKKDVYVVELDWYPDAPGEMVVLTCDTPEEDGITWTLDQSSEVLGSGKTLTIQVKAAGDAGQYTCHKGGEVLSHSLLLLHKKEDGIWSTDILKDQKEPKNKTFLRCEAKNYSGRFTCWWLTTISTDLTFSVKSSRGSSDPQGVTCGAATLSAERVRGDNKEYEYSVECQEDSACPAAEESLPIEVMVDAVHKLKYENYTSSFFIRDIIKPDPPKNLQLKPLKNSRQVEVSWEYPDTWSTPHSYFSLTFCVQVQGKSKREKKDRVFTDKTSATVICRKNASISVRAQDRYYSSSWSEWASVPCSGGGGSGGGSGGGGSRNLPVATPDPGMFPCLHHSQNLLRAVSNMLQKARQTLEFYPCTSEEIDHEDITKDKTSTVEACLPLELTKNESCLNSRETSFITNGSCLASRKTSFMMALCLSSIYEDLKMYQVEFKTMNAKLLMDPKRQIFLDQNMLAVIDELMQALNFNSETVPQKSSLEEPDFYKTKIKLCILLHAFRIRAVTIDRVMSYLNAS chain 2: FTVTVPKDLYVVEYGSNMTIECKFPVEKQLDLAALQVYWMMEDKNIIQFVHGEEDLKVQHSSYRQRARLLKDQLSLGNAALQITDVKLQDAGVYTCLIAYKGADYKRITVKVNAPYNKINQRILVVDPVTSEHELTCQAEGYPKAEVIWTSSDHQVLSGKTTTTNSKREEKLFNVTSTLRINTTTNEIFYCTFRRLDPEENHTAELVIPELPLAHPPNERGGGSGAPTSSSTKKTQLQLEHLRLDLEMILNGINNYKNPKLTDMLTFEFYMPKKATELKHLQCLERELKPLEEVLNLAQSKNFHLRPRDLISNINVIVLELKGSETTFMCEYADETATIVEFLNRWITFCQSIISTLTGGGGSGGGDKTHTCPPCPAPEKKGGPSVFLFPPKPKDTLMISRTPEVTCVVVDVSHEDPEVKFNWYVDGVEVHNAKTKPREEQYNSTYRVVSVLTVLHQDWLNGKEYKCKVSNKALPAPIEKTISKAKGQPREPQVYVLPPSREEMTKNQVSLLCLVKGFYPSDIAVEWESNGQPENRYMTWPPVLDSDGSFFLYSKLTVDKSRWQQGNVFSCSVMHEALHNHYTQKSLSLSPGK
–	–	31	30	1	3	IL-2(R38D/K43E/E61R/Q126T)/PD-L1(mut2)-Fc/IL-12(E59A/F60A) (Fc fusion) chain 1: FTVTVPKDLYVVEYGSNMTIECKFPVEKQLDLAALQVYWMMEDKNIIQFVHGEEDLKVQHSSYRQRARLLKDQLSLGNAALQITDVKLQDAGVYTCLIAYKGADYKRITVKVNAPYNKINQRILVVDPVTSEHELTCQAEGYPKAEVIWTSSDHQVLSGKTTTTNSKREEKLFNVTSTLRINTTTNEIFYCTFRRLDPEENHTAELVIPELPLAHPPNERGGGGSGGGDKTHTCPPCPAPEDEGGPSVFLFPPKPKDTLMISRTPEVTCVVVDVSHEDPEVKFNWYVDGVEVHNAKTKPREEQYNSTYRVVSVLTVLHQDWLNGKEYKCKVSNKALPAPIEKTISKAKGQPREPQVYVYPPSREEMTKNQVSLTCLVKGFYPSDIAVEWESNGQPENNYKTTPPVLDEDGSFALVSKLTVDKSRWQQGNVFSCSVMHEALHNHYTQKSLSLSPGKGGGGSGGGIWELKKDVYVVELDWYPDAPGEMVVLTCDTPEEDGITWTLDQSSEVLGSGKTLTIQVKAAGDAGQYTCHKGGEVLSHSLLLLHKKEDGIWSTDILKDQKEPKNKTFLRCEAKNYSGRFTCWWLTTISTDLTFSVKSSRGSSDPQGVTCGAATLSAERVRGDNKEYEYSVECQEDSACPAAEESLPIEVMVDAVHKLKYENYTSSFFIRDIIKPDPPKNLQLKPLKNSRQVEVSWEYPDTWSTPHSYFSLTFCVQVQGKSKREKKDRVFTDKTSATVICRKNASISVRAQDRYYSSSWSEWASVPCSGGGGSGGGSGGGGSRNLPVATPDPGMFPCLHHSQNLLRAVSNMLQKARQTLEFYPCTSEEIDHEDITKDKTSTVEACLPLELTKNESCLNSRETSFITNGSCLASRKTSFMMALCLSSIYEDLKMYQVEFKTMNAKLLMDPKRQIFLDQNMLAVIDELMQALNFNSETVPQKSSLEEPDFYKTKIKLCILLHAFRIRAVTIDRVMSYLNAS chain 2: FTVTVPKDLYVVEYGSNMTIECKFPVEKQLDLAALQVYWMMEDKNIIQFVHGEEDLKVQHSSYRQRARLLKDQLSLGNAALQITDVKLQDAGVYTCLIAYKGADYKRITVKVNAPYNKINQRILVVDPVTSEHELTCQAEGYPKAEVIWTSSDHQVLSGKTTTTNSKREEKLFNVTSTLRINTTTNEIFYCTFRRLDPEENHTAELVIPELPLAHPPNERGGGSGAPTSSSTKKTQLQLEHLLLDLQMILNGINNYKNPKLTDMLTFEFYMPKKATELKHLQCLERELKPLEEVLNLAQSKNFHLRPRDLISNINVIVLELKGSETTFMCEYADETATIVEFLNRWITFCTSIISTLTGGGGSGGGDKTHTCPPCPAPEKKGGPSVFLFPPKPKDTLMISRTPEVTCVVVDVSHEDPEVKFNWYVDGVEVHNAKTKPREEQYNSTYRVVSVLTVLHQDWLNGKEYKCKVSNKALPAPIEKTISKAKGQPREPQVYVLPPSREEMTKNQVSLLCLVKGFYPSDIAVEWESNGQPENRYMTWPPVLDSDGSFFLYSKLTVDKSRWQQGNVFSCSVMHEALHNHYTQKSLSLSPGK

Source: patent US20230167164A1 (IMMUNOWAKE, published 2023)
